The first assay addresses T1, rhodopsin (Bos taurus, UniProt P02699).
T1 construct: Bovine rod outer segments (rhodopsin-containing membranes) were prepared from fresh retinas; from tissue; host or cells: bovine retina, rod outer segment membranes (EDTA- and urea-washed)
Nature of the assay: ELISA binding of lysates of peptides panned from the Gt library to rhodopsin. Further details: species or system bovine. Conditions: OD450 for wells with receptor minus OD450 for wells with no receptor. The procedure: The panning process is illustrated in FIG. 1. For screening of the library by “panning,” rhodopsin receptors prepared according to Example 5 were immobilized directly on Immulon 4 (Dynatech) microtiter wells (0.1-1 μg of protein per well) in cold 35 mM HEPES, pH 7.5, containing 0.1 mM EDTA, 50 mM KCl and 1 mM dithiothreitol (HEK/DTT). After shaking for one hour at 4° C., unbound membrane fragments were washed away with HEK/DTT. The wells were blocked with 100 μl 2% BSA in HEKL (35 mM HEPES; 0.1 mM EDTA; 50 mM KCl; 0.2 M α-lactose; pH 7.5, with 1 mM DTT). For rounds 1 and 2, BSA was used for blocking; in later rounds 1% nonfat dry milk was used. For the first round of panning, about 24 wells of a 96-well plate were used. In subsequent rounds, 8 wells with receptor and 8 wells without receptor were prepared.
The Gt library was thawed (2 mL aliquot) and mixed with 6 mL lysis buffer on ice. Lysis buffer contains 4.25 mL HE (25 mM HEPES: 0.1 mM EDTA; pH 7.5); 1 mL 50% glycerol; 750 μL 10 mg/mL protease-free BSA in HE; 10 μL 0.5 M DTT; and 6.25 μL 0.2 M PMSF. Freshly prepared lysozyme solution (150 μL 10 mg/mL lysozyme in cold HE) was added and the tube was gently inverted several times and incubated on ice for no more than two minutes. The extent of lysis is evidenced by an increase in viscosity that can be observed by noting the slow migration of bubbles to the top of the tube after mixing. Lysis was terminated by mixing in 2 mL 20% lactose and 250 μL 2M KCl. The tube was centrifuged immediately at 13,000×g for 15 minutes at 4° C. and the supernatant transferred to a new tube. A small aliquot of 0.1% (the PRE sample) was saved in a separate, labeled tube. […] Immediately thereafter, the crude bacterial lysate from the peptide library (200 μL) was added to each well and allowed to shake gently for one hour at 4° C. For round 2, this same procedure was followed. In round 3, the amount of lysate used was reduced to 100 μL. In subsequent rounds, the lysate was diluted 1:10 in HEKL/BSA. In all rounds, 5-10 μL 200 μM native peptide was added to the wells to chase off peptides that were bound with lower affinity.
The methods of Example 7 repeated using rhodopsin screening with a Gt library. To identify the rank order of binding, the lysates were analyzed using ELISA methods in which the secondary antibody was conjugated to HRP. Following addition of the substrate, the microplate was read using a spectrophotometer. The binding is the OD450 for wells with receptor—OD450 for wells in which no receptor (control wells with empty lipid vesicles).
(In general: In an ELISA, binding on a coated surface is turned into a signal by an enzyme label.)
T1 sequence (P02699 whole entry): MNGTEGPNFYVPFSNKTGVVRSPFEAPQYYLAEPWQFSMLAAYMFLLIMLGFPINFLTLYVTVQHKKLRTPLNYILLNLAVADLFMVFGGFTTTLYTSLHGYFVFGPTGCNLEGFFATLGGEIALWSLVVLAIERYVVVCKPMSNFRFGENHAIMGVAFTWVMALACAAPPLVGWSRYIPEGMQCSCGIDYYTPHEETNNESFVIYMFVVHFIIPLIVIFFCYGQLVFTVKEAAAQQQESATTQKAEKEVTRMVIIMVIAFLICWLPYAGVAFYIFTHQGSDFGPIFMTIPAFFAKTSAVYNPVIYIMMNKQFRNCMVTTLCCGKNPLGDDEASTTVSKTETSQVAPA
For ICENLKDCGLF [Clone L6], the ELISA result is recorded as “.342”. On the same count and under the same terms, as for ILENLKDCGLF [Clone L3], the entry is “.839”; as for ILESLNECGLF [Clone L34], “.603”; as for ILQNLKDCGLF [Clone L17], “.600”. Take IRGSLKDCGLF [Clone L20]: the ELISA entry was “.423”. Still for that read-out and setting: in the case of ISKNLRDCGLL [Clone L13] it was “.187”; in that of IVKNLEDCGLF [Clone L8], “.257”; in that of LLDILKDCGLF [Clone L38], “.823”.

As to LRENLKDCGLL [Clone L14], the ELISA result is “.833”. The same measure, in the same setting: as for MLDNLKACGLF [Clone L4], the entry is “.908”.

Consider MLDNLKDCGLF [Clone L7], for which the ELISA entry is “.525”. The same measure, in the same setting: as for VRDILKDCGLF [Clone L15], the entry is “.621”.

For a further assay, the target named is β2 adrenergic receptor (Homo sapiens, UniProt P07550). Briefly: ELISA binding of peptides panned from the Gs library to β2 adrenergic receptor. As to conditions: recombinant reconstituted β2 adrenergic receptor; peptides selected from Gs library. From the text: The methods of Example 7 were repeated using recombinant reconstituted β2 adrenergic receptor panned with the Gs Library.
For the sequence DRMHLWRFGLL [AG11], the ELISA entry is “.192”.

As to ERLHRRLFQLH [BAR8], the ELISA entry is recorded as “.047”. Still for that read-out and setting: in the case of HRRHIGEFALL [BAR11] it was “.048”; in that of NCMKFRSCGLF [BAR20], “.079”. On the same count and under the same terms, as for PCIQLGQYESF [BAR40], the entry is “.028”. Same read-out and setting: in the case of PRPRLLRFKIP [AG19] it was “.361”; in that of QGEHLRQLQLQ [AG2], “.330”. For QGMQLRRFKLR [AG1], the ELISA entry was “.435”. Same read-out and setting: as for QRIHRRPFKFF [BAR1], the entry is “.218”. QRLHLRGYEFL [AG13]: the ELISA entry was “.054”. On the same count and under the same terms, as for QRLRLGPDELF [AG4], the entry is “.291”. On to QRLRLRKYRLF [BAR31], for which the ELISA result is given as “.026”. The same measure, in the same setting: in the case of QRMNLGPCGLL [AG18] it was “.155”; in that of QRMPLRLFEFL [AG3], “.217”; in that of QRMPLRQYELL [AG9], “.190”. The same measure, in the same setting: as for QRVHLRQDELL [BAR2], the entry is “.197”; as for QWMDLRQHELL [BAR3], “.185”; as for RWLHWQYRGRG [AG20], “.431”.
